For 78 variants, self-cleavage results are on record in the RNAGym collection of RNA variant scans (doi:10.7554/elife.80360).

Sequences and labels used below:
B1: CPEB3 Ribozyme (parent)
chain: GGGGGCCACAGCAGAAGCGUUCACGUCGCGGCCCCUGUCAGAUUCUGGUGAAUCUGCGAAUUCUGCUGU

In the series the parent is B1. As to the kind of experiment: self-cleavage, relative activity (ratio to wild type); higher = more cleavage; co-transcriptional.
On to GGGGGCCACAGCAGAAGCGUUCGCGUCGUGGCCCCUGUCAGAUUCUGGUGAAUCUGCGAAUUCUGCUGU, for which the self-cleavage came out at 0.217.
Turning to GGGGGCCACAGCAGAAGCGUUCGCCUCGCGGCCCCUGUCAGAUUCUGGUGAAUCUGCGAAUUCUGCUGU, the self-cleavage is 0.169.
For the variant GGGGGCCACAGCAGAAGCGUUCUCGUCGCGGACCCUGUCAGAUUCUGGUGAAUCUGCGAAUUCUGCUGU, the self-cleavage was determined as 0.893.
For GGGGGCCACAGCAGAAGCGUUCGCGUCGCGGGCCCUGUCAGAUUCUGGUGAAUCUGCGAAUUCUGCUGU the value was 0.337; for GGGGGCCACAGCAGAAGCGUUCUCGUCGCGGCCCCUGACAGAUUCUGGUGAAUCUGCGAAUUCUGCUGU, 0.95.
For GGGGGCCACAGCAGAAGCGUUCUCGUCGCGGCCCCUGGCAGAUUCUGGUGAAUCUGCGAAUUCUGCUGU the value was 0.206.
For GGGGGCCACAGCAGAAGCGUUCUCGUCGCGGCCCCUGCCAGAUUCUGGUGAAUCUGCGAAUUCUGCUGU the value was 0.96.
For the variant GGGGGCCACAGCAGAAGCGUUCUCGUCGCGGCCCCUGUCAGAUUCUGGUGAAUCUGCUAAUUCUGCUGU, the self-cleavage turned out to be 1.01.
Then GGGGGCCACAGCAGAAGCGUUCUCGUCGCGGCCCCUGUCAGAUUCUGGUGAAUCUGCAAAUUCUGCUGU, with 1.02; and GGGGGCCACAGCAGAAGCGUUCUCGUCGCGGCCCCUGUCAGAUUCUGGUGAAUCUGCCAAUUCUGCUGU, with 1.02.
For GGGGGCCACAGCAGAAGCGUUCGCGUCGCGGCCCCUGUCAGAUUCUGGUGAAUCUGCAAAUUCUGCUGU the value was 0.991.
GGGGGCCACAGCAGAAGCGUUCGCGUCGCGGCCCCUGUCAGAUUCUGGUGAAUCUGCUAAUUCUGCUGU: the self-cleavage amounted to 0.972.
In the case of GGGGGCCACAGCAGAAGCGUUCGCGUCGCGUCCCCUGUCAGAUUCUGGUGAAUCUGCGAAUUCUGCUGU, the self-cleavage is 0.583.
Then GGGGGCCACAGCAGAAGCGUUCGCGUCGCGACCCCUGUCAGAUUCUGGUGAAUCUGCGAAUUCUGCUGU, with 0.781; and GGGGGCCACAGCAGAAGCGUUCGCGUCGCGGCCCUUGUCAGAUUCUGGUGAAUCUGCGAAUUCUGCUGU, with 0.935; and GGGGGCCACAGCAGAAGCGUUCGCGUCGCGGCCGCUGUCAGAUUCUGGUGAAUCUGCGAAUUCUGCUGU, with 0.243.
Then GGGGGCCACAGCAGAAGCGUUCUCGUCGCGGCCCCUGUCAGAUUCUGGUGAAUCUGCGAACUCUGCUGU, with 0.895; and GGGGGCCACAGCAGAAGCGUUCCCGUCGCGGCCCCUGUCAGAUUCUGGUGAAUCUGCGAACUCUGCUGU, with 0.689; and GGGGGCCACAGCAGAAGCGUUCUCGUCGCGGCCCCUGUCAGAUUCUGCUGAAUCUGCGAAUUCUGCUGU, with 1.06.
Then GGGGGCCACAGCAGAAGCGUUCGCGUCGCGGCCCCUGUCAGAUUAUGGUGAAUCUGCGAAUUCUGCUGU, with 0.955; and GGGGGCCACAGCAGAAGCGUUCGCGUCGCGGCCCCUGUCAGAUUCUGGUGAAUCUGCGGAUUCUGCUGU, with 1.01.
Regarding GGGGGCCACAGCAGAAGCGUUCGCGUCGCGGCCCCUGUCAGAUUCUGGUGAAUCUACGAAUUCUGCUGU, the self-cleavage came to 0.953.
Then GGGGGCCACAGCAGAAGCGUUCUCGUCGCGGCCUCUGUCAGAUUCUGGUGAAUCUGCGAAUUCUGCUGU, with 1.01; and GGGGGCCACAGCAGAAGCGUUCUCGUCGCGGCCCCUGUCAGAUUCUGGUGAAUCUGCGAAUUCCGCUGU, with 0.905.
Then GGGGGCCACAGCAGAAGCGUUCUCGUCGCGGCCCCUGUCAGAGUCUGGUGAAUCUGCGAAUUCUGCUGU, with 0.884; and GGGGGCCACAGCAGAAGCGUUCUCGUCGCGGCCCAUGUCAGAUUCUGGUGAAUCUGCGAAUUCUGCUGU, with 0.395; and GGGGGCCACAGCAGAAGCGUUCUCGUCACGGCCCCUGUCAGAUUCUGGUGAAUCUGCGAAUUCUGCUGU, with 0.226.
Then GGGGGCCACAGCAGAAGCGUUCGCGUCGCGGCCCCUGUUAGAUUCUGGUGAAUCUGCGAAUUCUGCUGU, with 0.86; and GGGGGCCACAGCAGAAGCGUUCGCGUCGCGGCCCCUGUCAGAUUCUGGUGGAUCUGCGAAUUCUGCUGU, with 0.962.
On to GGGGGCCACAGCAGAAGCGUUCGCGUCGCGGCCCCUGUCAGAUUCUGGUGCAUCUGCGAAUUCUGCUGU, for which the self-cleavage was found to be 0.914.
For GGGGGCCACAGCAGAAGCGUUCCCGUCGCGGCCCCUGUCAGAUUCUGGUGAAUCUGCGAAUUCAGCUGU the value was 0.833.
For GGGGGCCACAGCAGAAGCGUUCGCGUCGCGGCCCCUGUCAGAUUCGGGUGAAUCUGCGAAUUCUGCUGU the value was 1.01.
With GGGGGCCACAGCAGAAGCGUUCGCGUCGCGGCCCCUGUCAGAUUCAGGUGAAUCUGCGAAUUCUGCUGU, the self-cleavage came out at 1.01.
For the variant GGGGGCCACAGCAGAAGCGUUCGCGUCGCGGCCCCUGUCAGAUUCUGGUGAAUCUGAGAAUUCUGCUGU, the self-cleavage worked out at 0.394.
For GGGGGCCACAGCAGAAGCGUUCCCGUCGCGGCCCCUGUCAGAUUCUGGUGAAUCGGCGAAUUCUGCUGU the value was 0.708; for GGGGGCCACAGCAGAAGCGUUCUCGUCGCGGCCCCUGUCAGAUUCUGGUGAAUCUGCGAAUUCUUCUGU, 0.811.
Consider GGGGGCCACAGCAGAAGCGUUCGCGUCGCGGCCCCUGUCAGAUUCUGGUGAAGCUGCGAAUUCUGCUGU, for which the self-cleavage is 0.85.
For GGGGGCCACAGCAGAAGCGUUCUCGUCGCGGCCCCUGUCAGAUUAUGGUGAAUCUGCGAAUUCUGCUGU the value was 0.997.
For GGGGGCCACAGCAGAAGCGUUCUCGUCGCGGCCCCUGUCAGAUUGUGGUGAAUCUGCGAAUUCUGCUGU the value was 1; for GGGGGCCACAGCAGAAGCGUUCGCGUCGCGGCCCCUGUCAGAUUCUGGUGAAUCUGCGAAAUCUGCUGU, 0.867.
For GGGGGCCACAGCAGAAGCGUUCGCGUCGCGGCCCCUGUCAGAUUCUGGUGAAUCUGCGAAGUCUGCUGU the value was 0.734; for GGGGGCCACAGCAGAAGCGUUCUCGUCGCGGCCCCUGUCAGAUUCUGGUGAAUCAGCGAAUUCUGCUGU, 0.877; for GGGGGCCACAGCAGAAGCGUUCUCGUCGCGGCCCCUGUCAGAUUCUGGUGAAUCGGCGAAUUCUGCUGU, 0.908.
As to GGGGGCCACAGCAGAAGCGUUCUCGUCGCGGCCCCUGUCAGAUUCUGGUGAAUCUGCGAAUUCUGAUGU, the self-cleavage stood at 0.886.
With GGGGGCCACAGCAGAAGCGUUCCCGUCGCGGCCCCUGUCAGAUUCUGGUGAAUCUGCGAAUUCUGCUGG, the self-cleavage stood at 1.02.
As for GGGGGCCACAGCAGAAGCGUUCUCGUCGCGGCCCCUGUCAGAUUCUGGUGAAUCUGGGAAUUCUGCUGU, the self-cleavage is 0.358.
For GGGGGCCACAGCAGAAGCGUUCUCGUCGCGGCCCCUGUCAGAUUCUGGUGGAUCUGCGAAUUCUGCUGU the value was 0.954; for GGGGGCCACAGCAGAAGCGUUCCCGUCGCGGCCCCUGUCAGAUUCUGGUGAAUCUGCGAAUUCUGCGGU, 0.968.
For GGGGGCCACAGCAGAAGCGUUCUCGUCGCGGCCCCUGUCAGAUUCUCGUGAAUCUGCGAAUUCUGCUGU the value was 0.999; for GGGGGCCACAGCAGAAGCGUUCUCGUCGCGGCCCCUGUCAGAUUCUGGUGAAUCUGCGAAUGCUGCUGU, 0.894; for GGGGGCCACAGCAGAAGCGUUCUCGUCGCGGCCCCUGUCAGAUUCUGGUGAAUCUGCGAAUCCUGCUGU, 0.885.
As to GGGGGCCACAGCAGAAGCGUUCGCGCCGCGGCCCCUGUCAGAUUCUGGUGAAUCUGCGAAUUCUGCUGU, the self-cleavage worked out at 1.03.
For GGGGGCCACAGCAGAAGCGUUCGCGGCGCGGCCCCUGUCAGAUUCUGGUGAAUCUGCGAAUUCUGCUGU the value was 0.788; for GGGGGCCACAGCAGAAGCGUUCGCGUCGCGGCCCCUGUCAGAUUCUGGUGAAUCUGCGAAUUCGGCUGU, 0.738; for GGGGGCCACAGCAGAAGCGUUCGCGUCGCGGCCCCUGUCAGAUUCUGGUGAAUCUGCGAAUUCCGCUGU, 0.777.
Take GGGGGCCACAGCAGAAGCGUUCGCGUCGCGGCCCCUGUCAGCUUCUGGUGAAUCUGCGAAUUCUGCUGU: the self-cleavage amounted to 0.911.
Then GGGGGCCACAGCAGAAGCGUUCGCGUCGCGGCCCCUGUCAGGUUCUGGUGAAUCUGCGAAUUCUGCUGU, with 0.867; and GGGGGCCACAGCAGAAGCGUUCGCGUCGCGGCCCCUGUCAGUUUCUGGUGAAUCUGCGAAUUCUGCUGU, with 0.862.
GGGGGCCACAGCAGAAGCGUUCUCGUCGCGGCUCCUGUCAGAUUCUGGUGAAUCUGCGAAUUCUGCUGU: the self-cleavage was determined as 0.998.
For GGGGGCCACAGCAGAAGCGUUCGCGUCGCGGCCCCUGUCAGAUUCUGAUGAAUCUGCGAAUUCUGCUGU the value was 1.
For GGGGGCCACAGCAGAAGCGUUCUCGUCGCGGCCCCUCUCAGAUUCUGGUGAAUCUGCGAAUUCUGCUGU the value was 0.149; for GGGGGCCACAGCAGAAGCGUUCUCGUCGCGGCCCCUAUCAGAUUCUGGUGAAUCUGCGAAUUCUGCUGU, 0.384; for GGGGGCCACAGCAGAAGCGUUCUCGUCGCGGCCCCUUUCAGAUUCUGGUGAAUCUGCGAAUUCUGCUGU, 0.347.
Then GGGGGCCACAGCAGAAGCGUUCGCGUCGCGGCCCCUGUCAGAUUCUGGUAAAUCUGCGAAUUCUGCUGU, with 0.971.
Consider GGGGGCCACAGCAGAAGCGUUCGCGUCGCGGCCCCUGUCAGAUUCUGGUUAAUCUGCGAAUUCUGCUGU, for which the self-cleavage turned out to be 0.971.
For GGGGGCCACAGCAGAAGCGUUCGCGUCCCGGCCCCUGUCAGAUUCUGGUGAAUCUGCGAAUUCUGCUGU the value was 0.13; for GGGGGCCACAGCAGAAGCGUUCGCGUCACGGCCCCUGUCAGAUUCUGGUGAAUCUGCGAAUUCUGCUGU, 0.136; for GGGGGCCACAGCAGAAGCGUUCGCGUCGCGGCCCCUGUCUGAUUCUGGUGAAUCUGCGAAUUCUGCUGU, 0.665.
Then GGGGGCCACAGCAGAAGCGUUCUCGUCGCGGCCCCUGUCAGAUUCUGGUGAAUCUGCGCAUUCUGCUGU, with 0.888.
Then GGGGGCCACAGCAGAAGCGUUCUCGUCGCGGCCCCUGUCAGAUUCUGGUGAAUCUGCGUAUUCUGCUGU, with 0.969.
For GGGGGCCACAGCAGAAGCGUUCUGGUCGCGGCCCCUGUCAGAUUCUGGUGAAUCUGCGAAUUCUGCUGU, the self-cleavage worked out at 0.556.
For GGGGGCCACAGCAGAAGCGUUCUUGUCGCGGCCCCUGUCAGAUUCUGGUGAAUCUGCGAAUUCUGCUGU the value was 0.924; for GGGGGCCACAGCAGAAGCGUUCUCGUCGCGACCCCUGUCAGAUUCUGGUGAAUCUGCGAAUUCUGCUGU, 0.977; for GGGGGCCACAGCAGAAGCGUUCCCGUCGCGGCCCCUGUCAGAUUCUGGUGAAUCUGCGAAUACUGCUGU, 0.755.
For GGGGGCCACAGCAGAAGCGUUCUCGUCGCGGCCCCUGUCAGCUUCUGGUGAAUCUGCGAAUUCUGCUGU the value was 0.992; for GGGGGCCACAGCAGAAGCGUUCUCGUCGCGGCCCCUGUCAGUUUCUGGUGAAUCUGCGAAUUCUGCUGU, 1.
For GGGGGCCACAGCAGAAGCGUUCUCGUCGCGGCCCCUGUCAGGUUCUGGUGAAUCUGCGAAUUCUGCUGU the value was 0.978.
In the case of GGGGGCCACAGCAGAAGCGUUCGCGUGGCGGCCCCUGUCAGAUUCUGGUGAAUCUGCGAAUUCUGCUGU, the self-cleavage was determined as 0.175.
